Data as given in patent publication US20240269310A1 (GENERAL HOSPITAL, published 2024).

Experiments:
[1] = target: T1, CDH11 as expressed by human breast cancer cells (MDA-MB-231 and breast cancer CTC lines Brx-142, Brx-330, … (human, UniProt P55287 54-796)); test: western blot of whole cell extracts of MDA-MB-231 and CTC lines; shRNA knockdown as specificity control
T1 construct: whole, on cells; On cells in immunofluorescence and immunohistochemistry; In whole cell extracts (RIPA, SDS gel) in the western blots; also called Cadherin 11; OB-cadherin
T1 sequence (looked up): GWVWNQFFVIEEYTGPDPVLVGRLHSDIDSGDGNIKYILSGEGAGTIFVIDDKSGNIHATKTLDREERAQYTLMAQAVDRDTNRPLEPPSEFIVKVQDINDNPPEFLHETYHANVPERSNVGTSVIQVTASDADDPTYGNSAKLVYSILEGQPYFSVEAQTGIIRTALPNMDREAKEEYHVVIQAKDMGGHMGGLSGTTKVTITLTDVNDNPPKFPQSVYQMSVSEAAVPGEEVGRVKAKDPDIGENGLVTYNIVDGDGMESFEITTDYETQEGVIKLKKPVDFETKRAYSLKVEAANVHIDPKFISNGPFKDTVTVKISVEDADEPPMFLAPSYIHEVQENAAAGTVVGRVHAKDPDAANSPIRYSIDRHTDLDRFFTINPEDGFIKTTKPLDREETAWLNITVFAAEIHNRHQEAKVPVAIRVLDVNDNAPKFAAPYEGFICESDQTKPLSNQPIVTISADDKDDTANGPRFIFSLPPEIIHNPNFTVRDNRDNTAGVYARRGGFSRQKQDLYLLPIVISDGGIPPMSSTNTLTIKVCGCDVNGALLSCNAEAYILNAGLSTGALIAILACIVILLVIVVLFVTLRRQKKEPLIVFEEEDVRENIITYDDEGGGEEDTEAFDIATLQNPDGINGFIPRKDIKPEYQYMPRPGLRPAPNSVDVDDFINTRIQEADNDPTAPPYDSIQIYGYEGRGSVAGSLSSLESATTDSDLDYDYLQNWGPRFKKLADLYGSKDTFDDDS
Protocol: FIG. 1 is the RNA expression levels of cell adhesion molecules in the CTC lines Brx-82, Brx-142, Brx-394 AVG, Brx-189, Brx-390, Brx-121, Brx-292, Brx-319, Brx-250, Brx-140, or Brx-401 from breast cancer patients. The cell adhesion molecule CDH11 was expressed at the RNA level in multiple breast CTC cell lines (FIG. 1, black outline).
(§1) Western blot analysis was performed on whole cell extracts prepared with RIPA buffer. Proteins were separated on 4-15% polyacrylamide gradient-SDS gels (Bio-Rad), and transferred onto nitrocellulose membrane (Invitrogen). Immunoblots were visualized with Enhanced Chemiluminescence (Perkin-Elmer). Primary antibodies were used against E-cadherin (1:5000; BDBiosciences Clone 36), N-cadherin (1:500; EBiosciences Clone 8C11) and GAPDH (1:2000; Millipore ABS16). 23C6 was also used as a primary antibody for western blot analysis (1:250). Recombinant protein obtained as follows: human CDH1 (R&D Systems 8505-EC-050), murine CDH1 (R&D Systems 8875-EC-050), human CDH2 (R&D Systems 1388NC050) and human CDH11 (Elabscience #PKSH032136).

[2] = target: T2, CDH1 (E-cadherin) as expressed by PDAC9 cells (human, UniProt P12830 155-882); test: flow cytometry of fixed PDAC9 cells after siRNA knockdown
T2 construct: whole, on cells; On fixed cells in flow cytometry; In whole cell lysates in the western blot; PDAC9 is described as patient-derived and is used among the human xenograft models
T2 sequence (looked up): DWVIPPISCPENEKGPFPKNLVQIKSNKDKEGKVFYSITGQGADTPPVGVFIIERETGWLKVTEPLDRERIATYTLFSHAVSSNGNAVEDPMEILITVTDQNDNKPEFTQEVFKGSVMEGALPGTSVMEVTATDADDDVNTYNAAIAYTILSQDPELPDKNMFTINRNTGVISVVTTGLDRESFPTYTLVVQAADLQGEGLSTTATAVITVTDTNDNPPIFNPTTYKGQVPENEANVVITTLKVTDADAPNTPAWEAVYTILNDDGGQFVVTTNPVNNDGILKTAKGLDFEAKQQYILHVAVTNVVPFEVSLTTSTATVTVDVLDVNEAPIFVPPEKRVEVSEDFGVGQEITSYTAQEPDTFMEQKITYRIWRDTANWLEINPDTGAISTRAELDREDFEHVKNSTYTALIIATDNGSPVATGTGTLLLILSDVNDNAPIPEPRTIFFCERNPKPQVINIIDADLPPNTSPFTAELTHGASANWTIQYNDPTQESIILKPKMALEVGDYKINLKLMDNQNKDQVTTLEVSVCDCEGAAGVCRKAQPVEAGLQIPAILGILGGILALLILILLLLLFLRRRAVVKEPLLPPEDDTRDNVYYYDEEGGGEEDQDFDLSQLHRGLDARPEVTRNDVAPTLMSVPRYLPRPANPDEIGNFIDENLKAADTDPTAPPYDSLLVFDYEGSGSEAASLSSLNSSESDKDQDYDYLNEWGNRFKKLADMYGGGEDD
Protocol: Cell lines were routinely checked for mycoplasma (MycoAlert, Lonza), and were obtained from ATCC. […] PDAC9 were grown as previously described (Porter et al., Proc Natl Acad Sci USA, (2019)). Viability assays were performed at 48 hours after treatment with varying concentration of the 23C6 antibody or PBS control. Viability was determined using Cell Titer Glo reagent (Promega). Proliferation assays were performed by treating MDA-MB-231 cells with a single dose of 23C6 antibody or PBS control and timepoints as indicated, where the relative cell number was determined with the Cell TiterGlo reagent. For migration assays, the MDA-MB-231 cells were harvested with trypsin, and the cells suspended in serum free media. […] The cell suspensions were treated with 23C6 or control, and after 48 hours, the number of cells migrating through the membrane was determined by crystal violet staining and microscopic imaging with automated counting of individual cells using Image J. For siRNA knockdown, ONTARGETplus siRNA smartpools (Horizon Discovery) were obtained and transfected using Lipofectamine RNAiMax reagent (Invitrogen) and the cells harvested for analysis after 5 days. For flow cytometry, in brief the cells were fixed with 4% PFA, blocked with 5% BSA in PBS and incubated with the 23C6 antibody at 1:500 followed by anti-mouse IgG-AlexaFlour 555 and then analyzed on BD Fortessa machine.

[3] = target: T3, recombinant murine CDH1 (R&D Systems 8875-EC-050) (murine, UniProt P09803 157-709); test: western blot of recombinant purified protein
T3 construct: Bought protein; also called mCDH1; recombinant murine E-cadherin protein
T3 sequence (looked up): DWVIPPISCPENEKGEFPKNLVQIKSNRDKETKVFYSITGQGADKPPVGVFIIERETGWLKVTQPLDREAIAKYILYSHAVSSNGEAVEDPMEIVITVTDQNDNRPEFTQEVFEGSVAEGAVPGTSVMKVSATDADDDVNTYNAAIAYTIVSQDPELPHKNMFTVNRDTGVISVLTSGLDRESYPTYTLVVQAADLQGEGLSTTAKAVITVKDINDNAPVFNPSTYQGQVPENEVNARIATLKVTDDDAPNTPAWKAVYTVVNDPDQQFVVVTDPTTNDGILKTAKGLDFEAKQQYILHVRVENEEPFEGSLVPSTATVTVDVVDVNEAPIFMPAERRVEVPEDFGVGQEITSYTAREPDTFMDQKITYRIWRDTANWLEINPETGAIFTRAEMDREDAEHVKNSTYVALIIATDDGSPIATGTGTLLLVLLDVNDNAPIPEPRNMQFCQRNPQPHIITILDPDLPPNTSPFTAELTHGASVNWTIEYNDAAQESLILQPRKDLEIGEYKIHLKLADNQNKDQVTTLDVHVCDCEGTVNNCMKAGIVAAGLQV
Protocol: as §1

[4] = target: T4, recombinant human CDH1 (R&D Systems 8505-EC-050) (human, UniProt P12830 155-707); test: western blot of recombinant purified protein
T4 construct: Bought protein; also called hCDH1; E-cadherin
T4 sequence (looked up): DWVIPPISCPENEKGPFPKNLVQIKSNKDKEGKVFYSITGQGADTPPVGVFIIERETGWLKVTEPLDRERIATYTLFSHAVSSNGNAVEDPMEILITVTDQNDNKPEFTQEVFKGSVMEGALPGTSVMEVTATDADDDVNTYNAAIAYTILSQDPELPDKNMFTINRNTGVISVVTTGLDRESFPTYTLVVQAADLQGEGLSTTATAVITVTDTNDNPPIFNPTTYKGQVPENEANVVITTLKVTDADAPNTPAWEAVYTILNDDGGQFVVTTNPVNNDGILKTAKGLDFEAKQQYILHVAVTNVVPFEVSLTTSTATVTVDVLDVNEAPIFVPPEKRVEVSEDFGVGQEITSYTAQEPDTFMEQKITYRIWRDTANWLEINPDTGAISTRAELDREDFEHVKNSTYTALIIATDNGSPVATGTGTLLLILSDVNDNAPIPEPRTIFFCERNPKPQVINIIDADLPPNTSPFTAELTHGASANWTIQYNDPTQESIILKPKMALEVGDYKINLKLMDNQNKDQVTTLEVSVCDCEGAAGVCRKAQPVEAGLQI
Protocol: as §1

Measured: binding result

B1: anti-CDH11 monoclonal antibody clone 23C6 (antibody, V domains shown)
VH: EFQLQQSGPELVKPGASVKISCKASGYSFTDYNMNWVKQSNGKSLEWIGAINPNYGTTSYNQKFKGKATLTVDQSSSTAYMQLNSLTSEDSAVYYCTRLYYGSRYFDVWGTGTTVTVSS
VL: QIVVTQSPAIMSASLGERVTMTCTASSSVSSSYLHWYQQKPGSSPKLWIYSTSNLASGVPARFSGSGSGTSYSLTISSMEAEDVATYYCHQYHRSPPTFGGGAKLEIK
notes: also called 23C6 antibody; 23C6 anti-CDH11 antibody
binds: [1] | [2] | [3] | [4]
